Measurements reported in the nanobody polyreactivity screen of Harvey et al. (2022).

Test: yeast display, Sf9 membrane polyspecificity reagent, FACS + sequencing; frameworks hold sequencing errors
Outline: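 After 36–48 hours of galactose induction, yeast (Saccharomyces cerevisiae BJ5465) displaying a synthetic nanobody library were stained at 4 °C for 1 hour with 10% biotinylated, detergent-solubilized Sf9 membrane reagent. Streptavidin microbeads enriched the stained cells before FACS sorting into low and high (top ~1%) gates on anti-HA and streptavidin fluorescence. Each clone's polyreactivity label reflects its gate of origin.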

Sequence | polyreactivity (PSR sort gate)
QVQLVESGGGLVQAGGSLRLSCAASGGTFGYNAMGWYRQAPGKERELVADITRGGITYYADSVKGRFTISRDNAKNTVYLQMNSLKPEDTAVYYCNAEYYVFSYSYGGVLRGDYWGQGTQVTVSS | high polyreactivity
QVQLVESGGGLVQAGGSLRLSCAASGGTFHLNAMGWYRQAPRKEREFVASISWSGGSTYYADSVKGRFTISRDNAKNTVYLQMNCLKPEDTAVYYCARRKYYRQGGRTKGYDYWGQGTQVTVSS | high polyreactivity
QVQLVESGGGLVQAGGSLRLSCAASGGTFHYYAMGWYRQAPGKERELVAAINRSGDSTYYADSVKGRFTISRDNAKNTVYLQMNSLKPEDTAVYYCAVSYYGADGNPFPHDYWGQGTQVTVSS | low polyreactivity
QVQLVESGGGLVQAGGSLRLSCAASGGTFITNAMGWYRKAPGKERELVAAITSGGRTTYADSVKGRFTISRDNAKNTVDLQMNSLKPVDTAVYYCAADHVYSSTYFLDDYWGQGTQVTVSS | low polyreactivity
QVQLVESGGGLVQAGGSLRLSCAASGGTFLFYGMGWYRQAPGNERELVAVITWSGGSTYYADSVKGRFTISRDTAKNTVYLHMNSLKPVDTAVYYCAADGYFYFDYPWMNYWGQGTQVTVSS | low polyreactivity
QVQLVESGGGLVQAGGSLRLSCAASGGTFLNYAMGWYRQAPGKERELVAVITNGDSTYYADSVKGRFTISRDNAKNSVYLQMNSLKPEDTAVYYCNADDWGQYNIWYDYWGQGTQVTVSS | low polyreactivity
QVQLVESGGGLVQAGGSLRLSCAASGGTFLSNAMGWYRQAPGKERELVAAISASSGSTYYADSVKGRFTISRDNAKNPVYLQMNSVKPEDTAVYYCAKERRASVVRYDYWGQGTQVTVSS | low polyreactivity
QVQLVESGGGLVQAGGSLRLSCAASGGTFNGYAMGWYRQAPGKERELVAAITSSGGSTYYADSVKGRFTISRDNAKNTVYLQMNSLKPEDTAVYYCAAALYPTYDVVRGYAYEYWGQGTQVTVSS | low polyreactivity
QVQLVESGGGLVQAGGSLRLSCAASGGTFNSNAMGWYRQAPGKERELVASITWRCGTYYADSVKGRFTISRDNAKNTVYLQMNSLKPVDTAVYYCAADTYYKGDYWGQGTQVTVSS | high polyreactivity
QVQLVESGGGLVQAGGSLRLSCAASGGTFNSNAMGWYRQAPGKERELVASITWRGGTYYADSVKGRFTISRDNAKNTVYLQMNSLKPEDTAVYYCAARGTIPGIHWIYYYWGQGTQVTVSS | high polyreactivity
QVQLVESGGGLVQAGGSLRLSCAASGGTFNTNAMGWYRQAPGKERELVATIRGGVITTYADSVKGRFTISRDNAKNTVYLQMNSLKPEDTAVYYCAVDDLRGYDYWGQGTQVTVSS | low polyreactivity
QVQLVESGGGLVQAGGSLRLSCAASGGTFPRNAMGWYRQAPGKERELVAAISRRGGSTYYADSVKGRFTISRDNAKNTVYLQMNSLKPEDTAVYYCATVQDKTYEYGYWGQGTQVTVSS | high polyreactivity
QVQLVESGGGLVQAGGSLRLSCAASGGTFPTNAMGWYRQAPGKERELVAAITSSGVRTYYADSVKGRFTISRDNAKNTVYLQMNSLKPEDTAVYYCATYSYTWMNYYWGQGTQVTVSS | high polyreactivity
QVQLVESGGGLVQAGGSLRLSCAASGGTFQDYGMGWYRQAPGKERELVAAITWSGGSTYYADSVKGRFTISRDNAKNTVYLQMNSLKPEDTAVYYCAAVYADVYLYLTAYDYWGQGTQVTVSS | low polyreactivity
QVQLVESGGGLVQAGGSLRLSCAASGGTFQINAMGWYRQAPGKEREMVAAISAAGGRTYYADSVKGRFTISRDNANNTVYLQMNSLKPEDTAVSYCAADWSYQVGRHQYFPMRYDYWGQGTQVTVSS | high polyreactivity
QVQLVESGGGLVQAGGSLRLSCAASGGTFRANAMGWYRQAPGKERELVAAISFRGGTTYYADSVKGRFTISRDNAKNTVYLQMNSLKPEDTAVYYCAARFLYYFRGKGYDYWGQGTQVTVSS | high polyreactivity
QVQLVESGGGLVQAGGSLRLSCAASGGTFRKYAMGWYRPAPGKERELVATISNGGSTYYADSVKGRFTISRDNAKNTVYLQMNSLIPEDTAVYYCAARFDYWVSGGLVKYNYWGQGTQVTVSS | high polyreactivity
QVQLVESGGGLVQAGGSLRLSCAASGGTFRLYAMGWYRQAPGKDRELVAAITGVGSTNYADSVKGRFTISRDNAKNTVYLQMNSLKPEDTAVYYCAAYYWSQVLIQGYYSWGQGTQVTVSS | high polyreactivity
QVQLVESGGGLVQAGGSLRLSCAASGGTFRSNAMGWYRQAPGKERELVAASTNYADSVKGRFTISRDNAKTTVYLQMNSLKPEDTAVYFCAARLASWPLTYDFQWYEYWGQGTQVTLSS | low polyreactivity
QVQLVESGGGLVQAGGSLRLSCAASGGTFRSYAMGWFRQAPGKERELVASISSGGTTNYADSVKGRFTISRDNAKNTVYLQLTSLKPEDTAVYYCAKSYPGRAPGYYSWGQGTQVTVSS | low polyreactivity
QVQLVESGGGLVQAGGSLRLSCAASGGTFRVYAMGWYRQAPGKERELVASISWTVGGTYADSVKGRFTISRDNAKNTVYLQMNSLKPEDTAVYYCAAGGEWVNPYFPSSLDYWGQGTQVTVSS | low polyreactivity

Sequence | polyreactivity (PSR sort gate)
QVQLVESGGGLVQAGGSLRLSCAASGGTFRVYVMGWYRQAPGKERELVADISRGGGSTYYADSVKGRFTISRDNAKNTVYLQMNSLKPEDTAVYYCAARVCRYPWRASEYDYWGQGTQVTVSS | high polyreactivity
QVQLVESGGGLVQAGGSLRLSCAASGGTFRYNAKGWYRQAPGKERELFATISIRGASTYYADSVKGRITISRDNAKHSVYLQLNSLKPEDTAVFYCAAERRNSYVLLIKYNYWGQGTQVTVSS | low polyreactivity
QVQLVESGGGLVQAGGSLRLSCAASGGTFRYNAMGWYRQAPGKERELVAAISSSGGSTYYADSVKGRFTISRDNAKNTVYLQMNSLKPEDTAVYYCAAKRRRYVELDYWGQVTQVTVSS | high polyreactivity
QVQLVESGGGLVQAGGSLRLSCAASGGTFRYYAMGRYRPAPGKERDLVARIRYNGGSTYYADSVKGRFTISRDNAKNTVSLQMKSLKPEDTAVDYCAAVGRYPRTWMNYWGQGNQVTVSS | high polyreactivity
QVQLVESGGGLVQAGGSLRLSCAASGGTFRYYTMGWYRQAPGKERELVASISGGGRTYYADSVKGRFTISRDNAKITVYLQMNSLKPEDTAVYYCNARNRVYYTLSGYGYWGQGTQVTVSS | high polyreactivity
QVQLVESGGGLVQAGGSLRLSCAASGGTFSFNAMGWYRQAPGKERELVAAITQTGDGTYYADSVKGRFTISRDNAKNTVYLQMNSLKPEDTAVYYCNTDSIPYVPWFRFDYWGQGTQVTVSS | low polyreactivity
QVQLVESGGGLVQAGGSLRLSCAASGGTFSGYVMGWYRQAPGKERELVAAISRRGTTTYYADSVKGRFTISRDNAKNTVYLQMISLKPEDTAVYYCAAVTRWKRTLSSFYYWGQGTQVTVSS | high polyreactivity
QVQLVESGGGLVQAGGSLRLSCAASGGTFSRYAMGWYRQAPGKERELVAAITRSGASTFYADSVKGRFTISRDNAKNTVYLQMNSLKPEDTAVYYCAADTYVYNEYDYWGQGTQVTVSS | high polyreactivity
QVQLVESGGGLVQAGGSLRLSCAASGGTFSSNAMGWYRQAPGKERELVAAISGSGDRTYYADSVKGRFTISRDNAKNTVYLQMNSLKPEDTAVYYCAKTLHKGSRGRYNYWGQGTQVTVSS | high polyreactivity
QVQLVESGGGLVQAGGSLRLSCAASGGTFSTYAMGWYRQAPGKERELVAAISYSTGNTYYADSVKGRFTISRDNAKNTVYFQMNSLKPEDTAVYYCATLGGSQRGLGSFTRKYDYWGQGTQVTVSS | low polyreactivity
QVQLVESGGGLVQAGGSLRLSCAASGGTFSYYAMGWYRQAPGKERELVAAINWSGASTYYADSVKGRFTISRDNAKNTVYLQMNSLKPEDTAVYYCNVYLGILYKYDYWGQGTQVTVSS | low polyreactivity
QVQLVESGGGLVQAGGSLRLSCAASGGTFSYYAMGWYRQAPGKERELVAAITYSGDRTYYADSVKGRFTISRDNAKNTVFLQMNSLKPEDTAVYYCNAVRGSWYGYYYWGQGTQVTVSS | high polyreactivity
QVQLVESGGGLVQAGGSLRLSCAASGGTFTAYAMGWYRQAPGKERELVAAISASGDSTYYADSVKGRFTISRDNAKNTVYLQMNSLKPEDTAVYYCNADWYRTGRRGSDYWGQGTQVTVSS | low polyreactivity
QVQLVESGGGLVQAGGSLRLSCAASGGTFTFYAMGWYRQATGKEMELVATINWSGGSTYYADSVKGRFTISRDNAKNTVYLQMNSLKPEDTAVYYCNAAWPYKSVEYWGQGTQVTVSS | low polyreactivity
QVQLVESGGGLVQAGGSLRLSCAASGGTFTGYAMGWYRQAPGKERELVAAISYSGTRTYYADSVKGRFTISRDNAKNTVYLQMNSLKPEDTAVYYCNALYAIWHDYWGQGTQVTVSS | high polyreactivity
QVQLVESGGGLVQAGGSLRLSCAASGGTFVGYTMGWYRQAPGKERELVAGIRTRSGSTSYADSVKGRFTISRDNAKNTVYLQMNSLKPEDTAVYYCAARPYGRYPYPEYYYWGQGTQVTVSS | high polyreactivity
QVQLVESGGGLVQAGGSLRLSCAASGGTFVYNAMGWYRQAPGKERELVAAIRVRGDTTYYADSVKGRFTISRDNAKYTVYLQMNSLKPEDTAVYYCAAYPDYSYYYWGQGTQVTVSS | high polyreactivity
QVQLVESGGGLVQAGGSLRLSCAASGGTFWIYAMGWYRQAPGKERELVAGITTSGATTYYADSVKGRFTISRDNAKNTVYLQMNSLKPEDTAVYYCAAVIRPRYYQVRPRYDYWGQGTQVTVSS | low polyreactivity
QVQLVESGGGLVQAGGSLRLSCAASGGTFYAYAMGSYRQAPGKERELVAAITNSGGSTYYADSVKGRFTISRDNAKNNVYLQMHSLKPEDTAVYYCARRRSYRDNYWGQGTQVTVSS | high polyreactivity
QVQLVESGGGLVQAGGSLRLSCAASGGTFYAYAMGWYRQAPGKERELVAAITRSGGRPYYADSVKGRVTISRDNAKNTVYLQMNSLKPEDTEVYYCAADPHHYSGLDYWGQGTHVTVSS | low polyreactivity
